{"source": "the RNAGym collection of RNA variant scans (doi:10.7554/elife.80360)", "parents": {"B1": {"name": "Hairpin Ribozyme (parent)", "chain": "GUCCUCUUUCACGUGCGCGUGAAAGAGAGAAGUGAACCAGAGAAACACACGUUGUGGUAUAUUACCUGGUA"}}}
{"variants_of": "B1", "assay": "self-cleavage, relative activity (ratio to wild type); higher = more cleavage; co-transcriptional"}
{"variant": "C12U G25A", "self-cleavage": 0.482}
{"variant": "C12U G27U", "self-cleavage": 0.199}
{"variant": "C12U G32U", "self-cleavage": 0.082}
{"variant": "C12U G42A", "self-cleavage": 0.149}
{"variant": "C12U G42U", "self-cleavage": 0.355}
{"variant": "C12U G54A", "self-cleavage": 0.587}
{"variant": "C12U G56A", "self-cleavage": 0.177}
{"variant": "C12U G68A", "self-cleavage": 0.259}
{"variant": "C12U G68U", "self-cleavage": 0.27}
{"variant": "C12U G69A", "self-cleavage": 0.406}
{"variant": "C12U G69C", "self-cleavage": 0.367}
{"variant": "C12U G69U", "self-cleavage": 0.153}
{"variant": "C12U U14C", "self-cleavage": 1.05}
{"variant": "C12U U20A", "self-cleavage": 0.695}
{"variant": "C12U U20C", "self-cleavage": 0.894}
{"variant": "C12U U33A", "self-cleavage": 0.205}
{"variant": "C12U U33G", "self-cleavage": 0.207}
{"variant": "C12U U53A", "self-cleavage": 0.974}
{"variant": "C12U U53G", "self-cleavage": 0.677}
{"variant": "C12U U55C", "self-cleavage": 0.218}
{"variant": "C12U U55G", "self-cleavage": 0.181}
{"variant": "C12U U58C", "self-cleavage": 1}
{"variant": "C12U U60A", "self-cleavage": 0.766}
{"variant": "C12U U62G", "self-cleavage": 0.235}
{"variant": "C12U U63A", "self-cleavage": 0.249}
{"variant": "G13A A23G", "self-cleavage": 0.767}
{"variant": "G13A A28C", "self-cleavage": 0.258}
{"variant": "G13A A28U", "self-cleavage": 0.495}
{"variant": "G13A A30C", "self-cleavage": 0.0871}
{"variant": "G13A A30U", "self-cleavage": 0.113}
{"variant": "G13A A31C", "self-cleavage": 0.11}
{"variant": "G13A A31G", "self-cleavage": 0.515}
{"variant": "G13A A35C", "self-cleavage": 0.739}
{"variant": "G13A A36U", "self-cleavage": 0.491}
{"variant": "G13A A41C", "self-cleavage": 1.04}
{"variant": "G13A A43G", "self-cleavage": 0.0659}
{"variant": "G13A A59C", "self-cleavage": 0.196}
{"variant": "G13A A59U", "self-cleavage": 0.241}
{"variant": "G13A A71U", "self-cleavage": 0.746}
{"variant": "G13A C16A", "self-cleavage": 0.82}
{"variant": "G13A C16G", "self-cleavage": 0.593}
{"variant": "G13A C16U", "self-cleavage": 1.03}
{"variant": "G13A C18G", "self-cleavage": 0.761}
{"variant": "G13A C18U", "self-cleavage": 1.1}
{"variant": "G13A C46A", "self-cleavage": 0.124}
{"variant": "G13A C46G", "self-cleavage": 0.0618}
{"variant": "G13A C50A", "self-cleavage": 0.284}
{"variant": "G13A C65A", "self-cleavage": 0.743}
{"variant": "G13A G15A", "self-cleavage": 0.839}
{"variant": "G13A G21U", "self-cleavage": 0.742}
{"variant": "G13A G25A", "self-cleavage": 0.484}
{"variant": "G13A G29U", "self-cleavage": 0.116}
{"variant": "G13A G40C", "self-cleavage": 0.152}
{"variant": "G13A G42A", "self-cleavage": 0.194}
{"variant": "G13A G51C", "self-cleavage": 0.68}
{"variant": "G13A G56U", "self-cleavage": 0.137}
{"variant": "G13A G57A", "self-cleavage": 0.175}
{"variant": "G13A G57C", "self-cleavage": 0.164}
{"variant": "G13A G69A", "self-cleavage": 0.368}
{"variant": "G13A G69U", "self-cleavage": 0.24}
{"variant": "G13A U14A", "self-cleavage": 0.99}
{"variant": "G13A U14C", "self-cleavage": 0.855}
{"variant": "G13A U14G", "self-cleavage": 0.538}
{"variant": "G13A U52A", "self-cleavage": 1.01}
{"variant": "G13A U52C", "self-cleavage": 0.625}
{"variant": "G13A U52G", "self-cleavage": 0.5}
{"variant": "G13A U53A", "self-cleavage": 0.856}
{"variant": "G13A U55A", "self-cleavage": 0.333}
{"variant": "G13A U58A", "self-cleavage": 0.574}
{"variant": "G13A U58G", "self-cleavage": 0.594}
{"variant": "G13A U60C", "self-cleavage": 1.25}
{"variant": "G13A U62C", "self-cleavage": 0.242}
{"variant": "G13A U63A", "self-cleavage": 0.194}
{"variant": "G13A U67A", "self-cleavage": 0.27}
{"variant": "G13A U67C", "self-cleavage": 0.27}
{"variant": "G13C A22U", "self-cleavage": 0.528}
{"variant": "G13C A24C", "self-cleavage": 0.466}
{"variant": "G13C A26G", "self-cleavage": 0.492}
{"variant": "G13C A30G", "self-cleavage": 0.114}
{"variant": "G13C A36G", "self-cleavage": 0.816}
{"variant": "G13C A36U", "self-cleavage": 0.4}
{"variant": "G13C A39C", "self-cleavage": 0.59}
{"variant": "G13C A39G", "self-cleavage": 0.186}
{"variant": "G13C A43C", "self-cleavage": 0.0516}
